From patent US20230398228A1, “ERIBULIN-BASED ANTIBODY-DRUG CONJUGATES AND METHODS OF USE” (EISAI R&D MANAGEMENT CO., LTD., priority 2016, published 2023)

Columns and labels:
[1] = tested on: NCI-H2110 cells; assay: Crystal Violet cytotoxicity assay (Example 4), NCI-H2110; assay type: cell-based, human; settings: mean of replicate experiments, read-out: Cytotoxicity IC50 (nM), NCI-H2110 (FR^med, MSLN^med)
Procedure: Test reagents were serial diluted 1:3 in 2 mL deep-well dilution plates, starting at 200 nM (10 dilutions total). […] Medium was then discarded. […] Plates were read at 570 nm. Data was analyzed using GraphPad Prism 6.

[2] = DAR analysis by HIC-HPLC
Procedure: Samples were injected onto a TSKgel® Ether-5 PW, 7.5 mm ID×7.5 cm, 10 μM pore size, and eluted from the column with a 3 min equilibration in 100% of mobile phase A, a 15 min gradient (0-100% B), a 5 min hold in 100% B, a 1 min change to 100% A, and a 5 min re-equilibration in 100% of mobile phase A, at 0.7 mL/min. Mobile phase A was 25 mM sodium phosphate, 1.5 M ammonium sulfate, pH 7.0. Mobile phase B was 25 mM sodium phosphate, 25% isopropanol, pH 7.0. Detection was done at 280 nm (reference 320 nm). DAR was determined by the formula:
[AUC+1+2(AUC+2)+3(AUC+3)+ . . . n(AUC+n)]/ΣAUCtot]
where AUC+1 is the area under the curve for the mAb peak corresponding to ADC conjugated with one cytotoxin, AUC+2 is the area under the curve for the mAb peak corresponding to ADC conjugated with two cytotoxins, etc. ΣAUCtot is the combined area under the curve for all peaks.
DAR was analyzed using hydrophobic interaction HPLC (HIC-HPLC). Samples were injected onto a TSKgel® Butyl-NP5, 4.6 mm ID×3.5 cm, 2.5 μM nonporous size column (Tosoh Bioscience), and eluted with a 3 min equilibration in 100% of mobile phase A, a 15 min gradient (0-100% B), a 5 min hold in 100% B, a 1 min change to 100% A, and a 5 min re-equilibration in 100% of mobile phase A, at 0.7 mL/min. Mobile phase A was 25 mM sodium phosphate, 1.5 M ammonium sulfate, pH 7.0. […] DAR was determined by the formula: […]

[3] = target: human mesothelin (Homo sapiens, UniProt Q13421); assay: ELISA, mesothelin; assay type: binding; settings: MORAb-009 and its ADCs; for EC50: read-out: Antigen Binding ELISA, EC50
Procedure: Recombinant human mesothelin was diluted to 1 μg/mL in coating buffer (50 mM carbonate-bicarbonate buffer, pH 9.6), and coated onto 96-well Maxisorp black plates (Thermo, Cat No. 43711, 100 μL/well) at 4° C., overnight. Coating solution was discarded and the plates were washed three times using 1×PBS with 0.05% Tween-20 (PBST) buffer. Plates were blocked in 300 μL blocking buffer (1% BSA in PBST) at room temperature for 2 hours on an orbital shaker. […] Blocking buffer was discarded and 100 μL/well of diluted antibody was added to the plates. Plates were incubated at room temperature for 2 hours on an orbital shaker. Antibody solution was discarded and plates were washed three times using PBST. 100 μL/well of goat-anti-human IgG (H+L)-HRP (1:10,000 dilution in blocking buffer) solution was added to the plates, and plates were incubated at room temperature for 1 hour on an orbital shaker. Secondary antibody solution was discarded and plates were washed three times using PBST. 100 μL/well of QuantaBlu fluorogenic peroxidase substrate working solution (Thermo, Cat No. 15169) was added to the plates, and plates were incubated at room temperature for 30 min. Fluorescence was read at excitation 325 nm/emission 420 nm using a SpectraMax M5 (Molecular Devices). Data was analyzed using SoftMaxPro 5.4.2 software with 4-parameter fitting.

[4] = SEC-HPLC aggregation analysis; assay type: physicochemical
Procedure: The antibody aggregation was analyzed by size-exclusion, high-performance liquid chromatography (SEC-HPLC) using an Agilent 1100. The mAb was diluted to 1 mg/mL in DPBS. The antibody (20 μL) was injected onto a TSKgel® SuperSW guard column (4.6 mm×3.5 cm, 4 μm pore size, Tosoh Bioscience), followed by a TSKgel® SuperSW3000 column (4.6 mm×30 cm, 4 μm pore size), eluted from the column with 0.1 M sodium phosphate containing 0.15 M NaCl and 0.05% NaN3, at pH 7.4, at a flow rate of 0.3 mL/min for 20 min. All data were analyzed using Agilent ChemStation software. Percent aggregation was calculated as [PAaggregate/PAtotal]*100, where PA=integrated peak area.
ADC was diluted to 1 mg/mL in DPBS. ADC (10 μL) was then injected onto an Advanced SEC 300A guard column (4.6 mm×3.5 cm, 2.7 μm pore size, Agilent), followed by a AdvancedBio 300A column (4.6 mm×30 cm, 2.7 μm pore size). ADC was eluted from the column with 0.1 M sodium phosphate containing 0.15 M NaCl and 5% IPA, pH 7.4 at a flow rate of 0.25 mL/min for 28 min. All data were analyzed using Agilent ChemStation software. Percent aggregation was calculated as [PAaggregate/PAtotal]*100, where PA=integrated peak area.

[5] = tested on: OD-BRE-0631 TNBC patient-derived xenograft; settings: 5 mg/kg single dose, five days post-treatment
[6] = tested on: human BM-MSCs co-cultured with MKN-74 cells; assay: 3D co-culture system (rStomach, zPredicta), MSC differentiation by flow cytometry; assay type: cell-based; settings: 7 days treatment, MORAb-202 10 nM, MORAb-003 10 nM, eribulin […] and 0.2 nM (Table 41)
Procedure: All mesenchymal stem cell (MSC)-containing 3D co-culture experiments were conducted in zPredicta, using organ-specific 3D extracellular matrix systems such as rStomach™. Bone marrow mesenchymal stem cells (BM-MSCs) in rStomach™ were co-cultured with the Nuc Red Light MKN-74 gastric cancer cell line in quadruplicate in 48-well format for 12 days. […] Prior to culture, BM-MSCs were evaluated for target antigen expression and for markers of MSC differentiation (Table 40) by flow cytometry.
Controls included untreated and vehicle-treated (PBS and DMSO) cultures. MSC differentiation was monitored by light microscopy. Once visible differentiation was observed, samples were harvested for staining and flow cytometry analysis.
Bone marrow mesenchymal stem cells (BM-MSCs) in rStomach™ (zPredicta) were co-cultured with the MKN-74 gastric cancer cell line for 12 days. […] Once visible MSC differentiation was observed by light microscopy, samples were harvested for staining and flow cytometry analysis.

MORAb009-PEG4-eribulin
IC50 [1]: 31.6 nM
DAR (HIC-HPLC) [2]: 4.57
Antigen Binding ELISA, EC50 [3]: 0.0116 µg/mL
EC50 [3]: 0.08 nM
SEC-HPLC Analysis % Aggr. [4]: 1.03%
SEC-HPLC Analysis % Frag. [4]: 1.84%
SEC-HPLC Analysis % Monomer [4]: 97.13%

MORAb-003-maleimido-PEG2-Val-Cit-pAB-eribulin [MORAb-202]
cancer associated fibroblast structure by anti-α-SMA-FITC IHC, in words [5]: diminish the structure of cancer associated fibroblasts
tumor cell occupation by IHC with anti-human IgG antibody, in words [5]: occupies folate receptor alpha-expressing tumor cells
Percentage of live cells, Pericytes ([6]; PBS 14.6%): 11.4%
Percentage of live cells, Adipocytes ([6]; PBS […]): 22.6%
Percentage of live cells, MSCs ([6]; PBS […]): 43.7%

MORAb009-PEG2-eribulin
IC50 [1]: 50 nM
DAR (HIC-HPLC) [2]: 4.30
Antigen Binding ELISA, EC50 [3]: 0.00884 µg/mL
EC50 [3]: 0.06 nM
SEC-HPLC Analysis % Aggr. [4]: 1.15%
SEC-HPLC Analysis % Frag. [4]: 1.74%
SEC-HPLC Analysis % Monomer [4]: 97.11%
